Assay [1] deals with DU145 cells. The experiment in a line: flow cytometry on DU145 cells, rhIgGFc at 100 nM, detected with anti-IgGFc-specific PE secondary antibody (control). (A flow cytometer gives signals particle by particle.)
Assay [2] addresses T1, PLEXIN B1 (human, UniProt O43157 20-2135).
T1 construct: whole, on cells; Endogenous receptor on cells
The experiment in a line: alkaline phosphatase ligand binding assay on DU145 cells B1 siRNA1 against scramble siRNA; APTag background subtracted. As to the method:
(§1) Cells were washed and then lysed. Plexin B1 levels were analyzed from lysates (30 μg) by polyacrylamide gel electrophoresis (PAGE). Western Blots were probed with anti-Plexin B1 and anti-phospho-Shc. Blots were re-probed with anti-vinculin and anti-Shc as loading control. DU145 cells were transfected with scramble siRNA, Plexin B1siRNA1 or PlexinB1 siRNA2 (10 nM) using RNAiMax™ reagent as directed by the manufacturer, (Invitrogen™, Missisauga, Ontario). Following 72 hours incubation the cells were replated at 20,000 cells/well in a 96-well flat bottom plate and let adhere for 4 hours. The remaining cells were lysed and assayed for PlexinB1 expression by Western Blot. The blot was reprobed with vinculin as loading control. Medium was replaced with DMEM without serum for 16 hours prior to the binding assay. […]
(§2) The binding assay was performed as previously described by […], J G. and LEDER, P. (1990), endogenous phosphatase heat inactivation was done in HBHA at 65° C. following the fixation step. Plate readings at 562 nm were taken initially and then every 24 hours. […]
(§3) DU145 cells transfected with scramble siRNA or, two distinct siRNAs targeting Plexin B1. […] AP-Sema3C binding to DU145 cells that were transfected with scramble or Plexin B1 siRNAs, where the mean and SEM AP-Sema3C binding performed was calculated in quadruplicate.

Assay [3] has as its target T1, PLEXIN B1. The experiment in a line: alkaline phosphatase ligand binding assay on DU145 cells transfected with Plexin B1 siRNA B1 siRNA2 against scramble siRNA; APTag background subtracted. The method, then:
as §1, §2, §3

T1 sequence (O43157 20-2135): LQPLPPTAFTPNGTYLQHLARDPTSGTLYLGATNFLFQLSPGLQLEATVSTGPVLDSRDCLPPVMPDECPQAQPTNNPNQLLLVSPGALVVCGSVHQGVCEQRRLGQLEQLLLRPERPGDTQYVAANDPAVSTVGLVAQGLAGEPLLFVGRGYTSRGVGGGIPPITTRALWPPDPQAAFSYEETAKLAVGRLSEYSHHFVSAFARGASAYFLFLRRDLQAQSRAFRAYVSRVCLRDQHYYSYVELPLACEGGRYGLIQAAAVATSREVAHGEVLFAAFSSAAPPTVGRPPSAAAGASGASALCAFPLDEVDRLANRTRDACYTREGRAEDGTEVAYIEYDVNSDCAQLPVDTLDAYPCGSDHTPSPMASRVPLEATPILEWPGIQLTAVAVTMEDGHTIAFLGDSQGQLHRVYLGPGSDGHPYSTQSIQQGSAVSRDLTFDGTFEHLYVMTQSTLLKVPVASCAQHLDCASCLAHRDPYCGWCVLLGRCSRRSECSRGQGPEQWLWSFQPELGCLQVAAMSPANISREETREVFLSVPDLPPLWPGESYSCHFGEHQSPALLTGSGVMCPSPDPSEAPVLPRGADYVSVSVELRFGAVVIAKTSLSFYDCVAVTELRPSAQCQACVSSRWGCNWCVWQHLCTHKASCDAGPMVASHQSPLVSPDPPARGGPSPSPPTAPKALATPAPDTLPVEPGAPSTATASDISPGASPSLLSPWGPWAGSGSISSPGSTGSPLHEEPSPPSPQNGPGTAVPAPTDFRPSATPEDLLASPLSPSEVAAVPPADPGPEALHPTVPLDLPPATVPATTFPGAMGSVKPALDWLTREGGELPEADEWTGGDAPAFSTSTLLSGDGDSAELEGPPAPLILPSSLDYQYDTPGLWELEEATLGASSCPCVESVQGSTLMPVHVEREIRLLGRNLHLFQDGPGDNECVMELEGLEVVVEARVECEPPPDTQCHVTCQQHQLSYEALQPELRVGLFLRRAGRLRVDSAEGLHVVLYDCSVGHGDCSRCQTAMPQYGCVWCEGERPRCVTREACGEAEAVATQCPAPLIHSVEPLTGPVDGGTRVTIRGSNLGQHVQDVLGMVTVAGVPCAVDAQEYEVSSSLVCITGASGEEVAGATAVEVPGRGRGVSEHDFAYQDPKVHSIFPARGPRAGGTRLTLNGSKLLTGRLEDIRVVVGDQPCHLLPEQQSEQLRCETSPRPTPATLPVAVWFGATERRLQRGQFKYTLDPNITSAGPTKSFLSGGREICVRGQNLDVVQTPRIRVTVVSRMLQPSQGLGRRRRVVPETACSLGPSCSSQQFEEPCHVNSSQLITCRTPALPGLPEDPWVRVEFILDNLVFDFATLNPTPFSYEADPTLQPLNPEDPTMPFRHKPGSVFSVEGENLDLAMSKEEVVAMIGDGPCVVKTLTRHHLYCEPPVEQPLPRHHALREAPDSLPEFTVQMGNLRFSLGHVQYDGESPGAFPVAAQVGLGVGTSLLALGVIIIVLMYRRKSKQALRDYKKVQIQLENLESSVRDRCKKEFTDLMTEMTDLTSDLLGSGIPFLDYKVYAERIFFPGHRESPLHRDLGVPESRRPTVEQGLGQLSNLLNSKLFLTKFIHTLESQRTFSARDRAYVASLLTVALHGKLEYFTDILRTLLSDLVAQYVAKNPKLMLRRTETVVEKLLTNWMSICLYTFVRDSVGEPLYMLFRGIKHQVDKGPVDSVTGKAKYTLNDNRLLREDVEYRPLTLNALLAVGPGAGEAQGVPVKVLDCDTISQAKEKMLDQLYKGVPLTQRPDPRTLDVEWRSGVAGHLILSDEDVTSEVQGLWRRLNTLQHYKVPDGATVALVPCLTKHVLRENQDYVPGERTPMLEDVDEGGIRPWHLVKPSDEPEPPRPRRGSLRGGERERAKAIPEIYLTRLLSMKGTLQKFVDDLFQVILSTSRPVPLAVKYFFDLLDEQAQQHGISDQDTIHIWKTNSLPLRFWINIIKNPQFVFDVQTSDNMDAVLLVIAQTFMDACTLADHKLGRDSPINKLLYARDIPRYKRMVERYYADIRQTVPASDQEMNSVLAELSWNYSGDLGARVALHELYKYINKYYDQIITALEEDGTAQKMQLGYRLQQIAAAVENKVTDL

Recombinant human IgGFc registered a level of staining at 100 nM in assay [1] of 6.01%.

B1: AP-SEMA3C (ligand, UniProt Q99985 21-751, looked up)
chain: GSSQPQARVYLTFDELRETKTSEYFSLSHHPLDYRILLMDEDQDRIYVGSKDHILSLNINNISQEALSVFWPASTIKVEECKMAGKDPTHGCGNFVRVIQTFNRTHLYVCGSGAFSPVCTYLNRGRRSEDQVFMIDSKCESGKGRCSFNPNVNTVSVMINEELFSGMYIDFMGTDAAIFRSLTKRNAVRTDQHNSKWLSEPMFVDAHVIPDGTDPNDAKVYFFFKEKLTDNNRSTKQIHSMIARICPNDTGGLRSLVNKWTTFLKARLVCSVTDEDGPETHFDELEDVFLLETDNPRTTLVYGIFTTSSSVFKGSAVCVYHLSDIQTVFNGPFAHKEGPNHQLISYQGRIPYPRPGTCPGGAFTPNMRTTKEFPDDVVTFIRNHPLMYNSIYPIHKRPLIVRIGTDYKYTKIAVDRVNAADGRYHVLFLGTDRGTVQKVVVLPTNNSVSGELILEELEVFKNHAPITTMKISSKKQQLYVSSNEGVSQVSLHRCHIYGTACADCCLARDPYCAWDGHSCSRFYPTGKRRSRRQDVRHGNPLTQCRGFNLKAYRNAAEIVQYGVKNNTTFLECAPKSPQASIKWLLQKDKDRRKEVKLNERIIATSQGLLIRSVQGSDQGLYHCIATENSFKQTIAKINFKVLDSEMVAVVTDKWSPWTWASSVRALPFHPKDIMGAFSHSEMQMINQYCKDTRQQHQQGDESQKMRGDYGKLKALINSRKSRNRRNQLPES
notes: Used as conditioned medium from 293T cells; also called AP-SEMA 3C construct; not shown: alkaline phosphatase tag of the APTag vector
For the molecule B1, the figures for the “fold reduction of binding on Plexin B1 knockdown against scramble siRNA” value in assay [2] and in assay [3] were 2.4 fold and 1.9 fold, respectively.
